Source: paper PMC6914384

Tests used:
[1] = target: p300 BRP module (bromodomain-RING-PHD), residues 1048-1282 (UniProt Q09472); assay: ITC
[2] = target: pIRF3 (IRF3 1-427 phosphorylated in vitro by TBK1) (UniProt Q14653); assay: SEC
[3] = target: pSTAT1ΔN (136-748), Tyr701-phosphorylated (UniProt P42224); assay: SEC
[4] = target: pSTAT1ΔNC (136-713), Tyr701-phosphorylated (UniProt P42224); assay: SEC

Chain of p300 BRP module (bromodomain-RING-PHD), residues 1048-1282 (Q09472 1048-1282): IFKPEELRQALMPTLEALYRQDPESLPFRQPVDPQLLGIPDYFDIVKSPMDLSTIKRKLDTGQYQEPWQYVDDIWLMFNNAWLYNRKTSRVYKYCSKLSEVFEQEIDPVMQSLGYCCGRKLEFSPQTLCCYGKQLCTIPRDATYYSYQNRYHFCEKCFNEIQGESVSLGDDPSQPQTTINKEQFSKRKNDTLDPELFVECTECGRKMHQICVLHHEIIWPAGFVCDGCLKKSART

With H4 K8acK12ac (4-24) peptide the Kd [1] was 90 µM and the stoichiometry N [1] was 1.01.

With “pIRF3 (IRF3 1-427 phosphorylated in vitro by TBK1) (from UniProt Q14653 1-427) (natural protein)” the stoichiometry N [2] was 2.

With “pSTAT1ΔN (136-748), Tyr701-phosphorylated (from UniProt P42224 136-748) (domain or fragment)” the stoichiometry N [3] was 2.

“pSTAT1ΔNC (136-713), Tyr701-phosphorylated (from UniProt P42224 136-713) (domain or fragment)” was tested, and the stoichiometry N [4] was 2.
